Patent US20120082667A1 (IMMUNAS PHARMA, published 2012)

Legend:
[1] = molecular target: T1, synthesized A beta1-42 (UniProt P05067 672-713); assay: dot blot: peptide spotted on nitrocellulose (0.1 micro g/dot), hybridoma culture supernatant, HRP anti-mouse IgG, ECL
T1 construct: domain: A beta1-42; spotted in the dot blot as the second of the two types of oligomers; also called A beta42 oligomer
Procedure: Dot blot analysis was carried out for hybridomas that gave positive result for primary screening. […] The membrane was blocked with Tris Buffer containing 5% low-fat milk and 0.05% Tween-20, and reacted with hybridoma culture supernatants and detected with chemiluminescence kit (ECL) after reacting with HRP-conjugated anti-mouse IgG antibody.

[2] = molecular target: T2, A beta monomer prepared from synthetic A beta1-40 (TFA form), 0.1 mg/ml in PBS (UniProt P05067 672-711); assay: competitive ELISA: antibody pre-incubated with soluble A beta1-40 monomer (inhibitor, varied), then binding to immobilised A beta1-40 oligomer read as OD450
T2 construct: domain: A beta1-40; also called A beta1-40 monomer; A beta40 monomer

[3] = molecular target: T3, A beta oligomer prepared from synthetic A beta1-40 (HCl form), 0.1 mg/ml in PBS, incubated at 37 degrees C … (UniProt P05067 672-711); assay: competitive ELISA: antibody pre-incubated with soluble A beta1-40 oligomer (inhibitor, varied), then binding to immobilised A beta1-40 oligomer read as OD450
T3 construct: domain: A beta1-40; non-fibrous assembly of A beta1-40; also called A beta1-40 oligomer; A beta40 oligomer

[4] = molecular target: T3, A beta oligomer prepared from synthetic …; assay: SPR, Biacore 3000, A beta1-40 oligomer on CM5 chip, antibody as analyte at five concentrations
Procedure: The analysis was carried out by Surface Plasmon Resonance (SPR) using Biacore 3000 (GE Healthcare Sciences).

Row | Binder | binding result [1] | other results
1 | AL-211 antibody (antibody, IgG2b, V domains shown) VH: QVTLKESGPGILKPSQTLSLTCSFSGFSLSTSGMGVGWIRQPSGKGLEWLAHIWWDDDKYYNPSLKSQLTISKDTSRNQVFLKITSVDTADTATYYCARRSLSRDYFDYWGQGTTLTVSS VL: DVVMTQTPLSLPVSLGDQASISCRSSQSLVHSNGNTYLHWYLQKPGQSPKLLIYKVSNRFSGVPDRFSGSGSGTDFTLKISRVEAEDLGVYFCSQSTHVPLTFGAGTKLELK | binds | 
2 | AL-228 antibody (antibody, IgG2a, V domains shown) VH: QVTLKESGPGILKPSQTLSLTCSFSGFSLSTSGMGVGWIRQPSGKGLEWLAHIWWDDDKYYNPSLKSRLTISKDTSRNQVFLKITSVDTADTATYYCTRRALLRLQGDYFDYWGQGTTLTVSS VL: DVLMTQTPLSLPVSLGDQASISCRSSQSIVHSNGNTYLEWYLQKPGQSPKLLIYKVSNRFSGVPDRFSGSGSGTDFTLKISRVEAEDLGVYYCFQGSHVPLTFGAGTKLELK | binds | 
3 | AL-213 antibody (antibody, IgG2b, V domains shown) VH: QVQLKQSGPGLVQPSQSLSITCTVSGFSLTSYGVHWVRQSPGKGLEWLGVIWRGGSTDYNAAFMSRLSITKDNSKSQVFFKMNSLQADDTAIYYCANNRYERGGYYAMDYWGQGTSVTVSS VL: DVLMTQTPLSLPVSLGDQASISCRSSQSIVHSNGNTYLEWYLHKPGQSPKLLIYKVSNRFSGVPDRFSGSGSGTDFTLKISRVEAEDLGVYYCFQGSHVPLTFGAGTKLELK | binds | 
4 | AL-227 antibody (antibody, IgG2a, V domains shown) VH: not shown VL: DVVMTQTPLSLPVSLGDQASISCRSSQSLVHSNGNTYLHWYLQKPGQSPKLLIYKVSNRFSGVPDRFSGSGSGTDFTLKISRVEAEDLGVYFCSQSTHVPLTFGAGTKLELK | binds | 
5 | AL-222 antibody (antibody, IgG2b, V domains shown) VH: QVTLKESGPGILKPSQTLSLTCSFSGFSLSTAGMGVGWIRQPSGKGLEWLAHIWWDDDKYYNPSLKSQLTISKDTSRNQVFLKITSVDTADTATYYCARRGLYYGNYDAMDYWGQGTSVTVSS VL: DVLMTQTPLSLPVSLGDQASISCRSSQSIVHSNGNTYLEWYLQKPGQSPKLLIYKVSTRFSGVPDRFSGSGSGTDFTLKISRVEAEDLGVYYCFQGSRVPLTFGAGTKLELK | binds | binding result [2]: binds; binding result [3]: binds
6 | AL-216 antibody (antibody, IgG2b, V domains shown) VH: QVQLQQPGAELVKPGASVKLSCKASGYTFTSYWMHWVKQRPGQGLEWIGEINPSNGRTNYNEKFKSKATLTVDKSSSTAYMQLSSLTSEDSAVYYCAREHYYGYGAYWGQGTLVTVSA VL: DVLMTQTPLSLPVSLGDQASISCRSSQSIVHSNGNTYLEWYLQKPGQSPKLLIYKVSNRFSGVPDRFSGSGSGTDFTLKISRVEAEDLGVYYCFQGSHVPLTFGAGTKLELK | binds | 
7 | AL-226 antibody (antibody, IgG2b, V domains shown) VH: not shown VL: DVVMTQTPLSLPVSLGDQASISCRSSQSLVHSNGNTYLHWYLQKPGQSPKLLIYKVSNRFSGVPDRFSGSGSGTDFTLKISRVEAEDLGVYFCSQSTHVPLTFGAGTKLELK | binds | 
8 | AL-212 antibody (antibody, IgG2b, V domains shown) VH: QVTLKESGPGILKPSQTLSLTCSFSGFSLSTSGMGVGWIRQPSGKGLEWLAHIWWDDDKYYNPSLKSQLTISKDTSRNQVFLKITSVDTADTATYYCAPSTMITTFAYWGQGTLVTVSA VL: DVVMTQTPLSLPVSLGDQASISCRSSQSLVHSNGNTYLHWYLQKPGQSPKLLIYKVSNRFSGVPDRFSGSGSGTDFTLKISRVEAEDLGVYFCSQSTHVPLTFGAGTKLELK | binds | 
9 | AL-223 antibody (antibody, IgG2a, V domains shown) VH: QVTLKESGPGILKPSQTLSLTCSFSGFSLSTSGMGVGWIRQPSGKGLEWLAHIWWDDDKYYNPSLKSQLTISKDTSRNQVFLKITSVDTADTATYYCARRALITTRDYFDYWGQGTTLTVSS VL: DVLMTQTPLSLPVSLGDQASISCRSSQSIVHSNGNTYLEWYLQKPGQSPKLLIYKVSNRFSGVPDRFSGSGSGTDFTLKISRVEAEDLGVYYCFQGSHVPLTFGAGTKLELK | binds | binding result [2]: binds; binding result [3]: binds
10 | AL-217 antibody (antibody, IgG1, V domains shown) VH: QVTLKESGPGILQPSQTLSLTCSFSGFSLSTSGMGVSWIRQPSGKGLEWLAHIYWDDDKRYNPSLKSRLTISKDTSSNQVFLKITSVDTADTATYYCARRGPSYYRYRDYFDYWGQGTTLTVSS VL: DVLMTQTPLSLPVSLGDQASISCRSSQSIVHSNGNTYLEWYLQKPGQSPKLLIYKVSNRFSGVPDRFSGSGSGTDFTLKISRVEAEDLGVYYCFQGSHVPLTFGAGTKLELK |  | Kd [4]: 6.44 nM; koff [4]: 0.00123 s⁻¹; kon [4]: 191000 M⁻¹ s⁻¹
11 | AL-214 antibody (antibody, IgG2b, V domains shown) VH: QVQLKQSGPGLVQPSQSLSITCTVSGFSLTSYGVHWVRQSPGKGLEWLGVIWRGGSTDYNAAFMSRLSITKDNSKSQVFFKMNSLQADDTAIYYCANNRYERGGYYAMDYWGQGTSVTVSS VL: DVLMTQTPLSLPVSLGDQASISCRSSQSIVHSNGNTYLEWYLQKPGQSPKLLIYKVSNRFSGVPDRFSGSGSGTDFTLKISRVEAEDLGVYYCFQGSHVPLTFGAGTKLELK | binds | 
12 | AL-220 antibody (antibody, IgG2b, V domains shown) VH: QVQLQQPGAELVKPGASVKLSCKASGYTFTSYWMHWVKQRPGQGLEWIGEINPSNGRTNYNEKFKSKATLTVDKSSSTAYMQLSSLTSEDSAVYYCAREHYYGYGAYWGQGTLVTVSA VL: DVLMTQTPLSLPVSLGDQASISCRSSQSIVHSNGNTYLEWYLQKPGQSPKLLIYKVSNRFSGVPDRFSGSGSGTDFTLKISRVEAEDLGVYYCFQGSHVPYTFGGGTKLEIK | binds | 
13 | AL-225 antibody (antibody, IgG2a, V domains shown) VH: QVTLKESGPGILKPSQTLSLTCSFSGFSLSTSGMGVGWIRQPSGKGLEWLAHIWWDDDKYYNPSLKSQLTISKDTSRNQVFLKITSVDTADTATYYCARRGLIRQDYFDYWGQGTTLTVSS VL: DVLMTQTPLSLPVSLGDQASISCRSSQSIVHSNGNTYLEWYLQKPGQSPKLLIYKVSNRFSGVPDRFSGSGSGTDFTLKISRVEAEDLGVYYCFQGSHVPLTFGAGTKLELK |  | Kd [4]: 126 nM; koff [4]: 0.0192 s⁻¹; kon [4]: 152000 M⁻¹ s⁻¹
14 | AL-202 antibody (antibody, IgG2a, V domains shown) VH: EVQLVESGGDLVKPGGSLKLSCAASGFTFSSYGMSWVRQTPDKRLEWVATISSGGSYTYYPDSVKGRFTISRDNAKNTLYLQMSSLKSEDTAMYYCARPLYYRHGVFAYWGQGTLVTVSA VL: DVQITQSPSYLAASPGETITINCRASKSISKYLAWYQEKPGKTNKLLIYSGSTLQSGIPSRFSGSGSGTDFTLTISSLEPEDFAMYYCQQHNEYPWTFGGGTKLEIK | binds | 
15 | AL-224 antibody (antibody, IgG2a, V domains shown) VH: DVQLVESGGGLVQPGGSRKLSCAASGFTFSSFGMHWVRQAPEKGLEWVAYISSGSSTIYYADTVKGRFTISRDNPKNTLFLQMTSLRSEDTAMYYCARYGNYAMDYWGQGTSVTVSS VL: DVLMTQTPLSLPVSLGDQASISCRSSQSIVHSNGNTYLEWYLQKPGQSPKLLIYKVSNRFSGVPDRFSGSGSGTDFTLKIGRVEAEDLGVYYCFQGSHVPPTFGGGTELEIK |  | Kd [4]: 544 nM; koff [4]: 0.155 s⁻¹; kon [4]: 285000 M⁻¹ s⁻¹
16 | AL-206 antibody (antibody, IgG2b, V domains shown) VH: DVQLQESGPGLVKPSQSLSLACTVTGYSITSDYAWNWIRQFPGNKLEWLGYISYSGTTRYNPSLKSRISITRDTSKNQFFLQLNSVTTEDTATYYCAIYGSSYYWYFDVWGAGTTVTVSS VL: QIVLTQSPAIMSASLGERVTMTCTASSSVSSSYLHWYQQKPGSSPKLWIYSTSNLASGVPARFSGSGSGTSYSLTISSMEAEDAATYYCHQYHRSPPTFGAGTKLELK | binds | 
17 | AL-207 antibody (antibody, IgG2b, V domains shown) VH: QVTLKESGPGILKPSQTLSLTCSFSGFSLSTSGMGVGWIRQPSGKGLEWLAHIWWDDDEYYNPSLKSQLTISKDTTRNQVFLKITSVDTADTATYYCARRAIHYYGYDAMDYWGQGTSVTVSS VL: QIVLTQSPAIMSASLGERVTMTCTASSSVSSSYLHWYQQKPGSSPKLWIYSTSNLASGVPARFSGSGSGTSYSLTISSMEAEDAATYYCHQYHRSPPTFGAGTKLELK | binds | 
18 | AL-208 antibody (antibody, IgG2b, V domains shown) VH: QVQLQQPGAELVKPGASVKLSCKASGYTFTSYWMHWVKQRPGQGLEWIGEINPSNGRTNYNEKFKSKATLTVDKSSSTAYMQLSSLTSEDSAVYYCARQGYRHGVFAYWGQGTLVTVSA VL: QIVLTQSPAIMSASLGERVTMTCTASSSVSSSYLHWYQQKPGSSPKLWIYSTSNLASGVPARFSGSGSGTSYSLTISSMEAEDAATYYCHQYHRSPPTFGAGTKLELK | binds | 
19 | AL-209 antibody (antibody, IgG2a, V domains shown) VH: not shown VL: DIQMTQSPSSLSASLGGKVTITCKASQDINKYIAWYQHKPGKGPRLLIHYTSTLQPGIPSRFSGSGSGRDYSFSISNLEPEDIATYYCLQYDNLYTFGGGTKLEIK | binds | binding result [2]: binds; binding result [3]: binds
